How the values were obtained:
Settings in all cases: remark: other sources report otherwise
[1] = target: T1, wildtype pneumolysin (PLYWT) (Streptococcus pneumoniae), P0C2J9; experiment: electron cryo-tomography with subtomogram averaging; prepores: preformed cholesterol-containing liposomes incubated with PLY (1 mg/ml) at room temperature for 30 min; subtomogram average at 22 Å
T1 chain: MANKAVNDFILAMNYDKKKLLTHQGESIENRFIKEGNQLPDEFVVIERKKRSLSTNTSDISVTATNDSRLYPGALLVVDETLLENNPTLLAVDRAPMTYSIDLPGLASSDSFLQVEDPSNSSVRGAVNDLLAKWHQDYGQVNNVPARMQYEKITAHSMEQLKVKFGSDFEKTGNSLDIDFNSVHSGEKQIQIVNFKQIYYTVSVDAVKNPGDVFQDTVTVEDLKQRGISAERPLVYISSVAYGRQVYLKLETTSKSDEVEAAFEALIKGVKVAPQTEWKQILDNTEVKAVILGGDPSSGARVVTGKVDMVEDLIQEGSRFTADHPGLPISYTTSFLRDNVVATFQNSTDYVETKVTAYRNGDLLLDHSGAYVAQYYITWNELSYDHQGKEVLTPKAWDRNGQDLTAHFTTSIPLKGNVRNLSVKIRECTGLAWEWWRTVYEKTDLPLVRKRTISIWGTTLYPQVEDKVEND

[2] = target: T1, wildtype pneumolysin (PLYWT) …; experiment: cryo-EM structure; single-particle cryoEM of PLY pore complexes formed on DOPC/cholesterol liposomes (37°C, 30 min), solubilised with 0.56% Cymal-6 and exchanged into amphipol A8-35; 50 mM Tris-HCl pH 7.0, 150 mM NaCl, 5 mM β-mercaptoethanol; 42-fold symmetry, 4.5 Å
[3] = target: T1, wildtype pneumolysin (PLYWT) …; experiment: electron cryo-tomography with subtomogram averaging; pores: preformed cholesterol-containing liposomes incubated with PLY (1 mg/ml) at 37°C for 30-180 min; subtomogram average at 27 Å

B1: wildtype pneumolysin (PLYWT), P0C2J9 1-471 (natural protein)
chain: T1 chain
[1]
  stoichiometry N: 34 subunits
[2]
  stoichiometry N: 42 subunits
[3]
  stoichiometry N: 34 subunits
